Measurements: the supplement of paper PMC9112550, “Optimization of the antimicrobial peptide Bac7 by deep mutational scanning” (BMC Biology, 2022)

Test system: Escherichia coli TOP10
Experiment: shrunken log2 fold change of peptide-encoding DNA abundance (4.5 h post-induction vs induction); higher = less antimicrobial activity (less host growth inhibition)
Settings: time post-induction: 4.5 h; library: site-saturation at positions 5, 18, 19, 20
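Note: peptides expressed intracellularly from a pBAD plasmid library in pooled LB shake-flask culture, induced with 0.3% L-arabinose, DNA abundance read by NGS, three biological replicates, DESeq2 with apeglm shrinkage.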

Sequence	shrunken log2 fold change
RRIRRRPPRLPRPRPRPGGEPRP	0.356
RRIRYRPPRLPRPRPRPKFFPRP	0.131
RRIRNRPPRLPRPRPRPKYNPRP	-0.901
RRIRCRPPRLPRPRPRPYMMPRP	-0.293
RRIRNRPPRLPRPRPRPSAFPRP	-0.249
RRIRNRPPRLPRPRPRPEDVPRP	-0.0153
RRIRTRPPRLPRPRPRPKEYPRP	-1.07
RRIRMRPPRLPRPRPRPDRDPRP	0.353
RRIRTRPPRLPRPRPRPWGRPRP	0.00879
RRIRCRPPRLPRPRPRPASDPRP	-0.0092
RRIRDRPPRLPRPRPRPFWLPRP	0.00235
RRIRQRPPRLPRPRPRPWAFPRP	-0.000467
RRIRVRPPRLPRPRPRPAWQPRP	-0.00433
RRIRFRPPRLPRPRPRPEEQPRP	0.162
RRIRGRPPRLPRPRPRPDQNPRP	0.00612
RRIRARPPRLPRPRPRPRMPPRP	0.251
RRIRFRPPRLPRPRPRPSNMPRP	-0.935
RRIRWRPPRLPRPRPRPLGDPRP	0.598
RRIRQRPPRLPRPRPRPAHGPRP	0.19
RRIRIRPPRLPRPRPRPSMYPRP	-1.53
RRIRHRPPRLPRPRPRPYDSPRP	-0.0275
RRIRWRPPRLPRPRPRPHDYPRP	0.0166

Sequence	shrunken log2 fold change
RRIRERPPRLPRPRPRPCCAPRP	0.112
RRIRHRPPRLPRPRPRPYGWPRP	-0.145
RRIRFRPPRLPRPRPRPYKDPRP	-0.213
RRIRPRPPRLPRPRPRPHYHPRP	-0.936
RRIRLRPPRLPRPRPRPLPYPRP	0.514
RRIRIRPPRLPRPRPRPHLVPRP	-0.573
RRIRSRPPRLPRPRPRPFYGPRP	-0.507
RRIRKRPPRLPRPRPRPYEIPRP	-0.0117
RRIRMRPPRLPRPRPRPGFLPRP	0.113
RRIRQRPPRLPRPRPRPLYSPRP	-0.649
RRIRQRPPRLPRPRPRPKGLPRP	0.0353
RRIRKRPPRLPRPRPRPNLCPRP	0.118
RRIRVRPPRLPRPRPRPDKAPRP	-0.0129
RRIRARPPRLPRPRPRPKQIPRP	0.146
RRIRKRPPRLPRPRPRPINWPRP	0.0577
RRIRARPPRLPRPRPRPHINPRP	-0.325
RRIRGRPPRLPRPRPRPATFPRP	0.326
RRIRHRPPRLPRPRPRPINIPRP	-1.01
RRIRSRPPRLPRPRPRPRCAPRP	0.509
RRIRARPPRLPRPRPRPRTPPRP	0.636
RRIRQRPPRLPRPRPRPDRPPRP	0.00639
RRIRNRPPRLPRPRPRPHFLPRP	-0.217

Sequence	shrunken log2 fold change
RRIRARPPRLPRPRPRPVWMPRP	0.0552
RRIRFRPPRLPRPRPRPNVYPRP	-0.558
RRIRPRPPRLPRPRPRPACWPRP	0.671
RRIRLRPPRLPRPRPRPSEFPRP	-0.855
RRIRGRPPRLPRPRPRPDYWPRP	-0.027
RRIRDRPPRLPRPRPRPICEPRP	0.229
RRIRYRPPRLPRPRPRPRWSPRP	-0.225
RRIRGRPPRLPRPRPRPLGWPRP	1.27
RRIRPRPPRLPRPRPRPDSNPRP	-0.221
RRIRSRPPRLPRPRPRPHTIPRP	-0.87
RRIRARPPRLPRPRPRPVNDPRP	0.584
RRIRFRPPRLPRPRPRPVEIPRP	-0.391
RRIRLRPPRLPRPRPRPKWEPRP	-0.00197
RRIRNRPPRLPRPRPRPGIIPRP	-0.00401
RRIRGRPPRLPRPRPRPYRDPRP	0.528
RRIRRRPPRLPRPRPRPAQRPRP	0.414
RRIRYRPPRLPRPRPRPLRDPRP	0.0739
RRIRYRPPRLPRPRPRPKKLPRP	-0.647
RRIRFRPPRLPRPRPRPFVCPRP	-0.398
RRIRDRPPRLPRPRPRPDNHPRP	-0.107
RRIRWRPPRLPRPRPRPWGYPRP	0.0906
RRIRARPPRLPRPRPRPGYSPRP	-0.35

Sequence	shrunken log2 fold change
RRIRMRPPRLPRPRPRPEDMPRP	3.26
RRIRARPPRLPRPRPRPAVYPRP	-0.079
RRIRCRPPRLPRPRPRPHDHPRP	-0.307
RRIRVRPPRLPRPRPRPHYLPRP	0.00696
RRIRWRPPRLPRPRPRPTTYPRP	-0.187
RRIRSRPPRLPRPRPRPFLWPRP	-0.0904
RRIRDRPPRLPRPRPRPKDRPRP	0.0874
RRIRQRPPRLPRPRPRPFLQPRP	-0.194
RRIRVRPPRLPRPRPRPIQYPRP	0.0111
RRIRGRPPRLPRPRPRPQAYPRP	-0.0978
RRIRVRPPRLPRPRPRPSLQPRP	-0.0631
RRIRHRPPRLPRPRPRPFVYPRP	-0.186
RRIRRRPPRLPRPRPRPLANPRP	0.42
RRIRDRPPRLPRPRPRPFKLPRP	0.0184
RRIRKRPPRLPRPRPRPFYSPRP	0.00762
RRIRKRPPRLPRPRPRPFHLPRP	0.0215
RRIRKRPPRLPRPRPRPKEWPRP	0.222
RRIRERPPRLPRPRPRPLIHPRP	-0.522
RRIRSRPPRLPRPRPRPVKGPRP	-0.0577
RRIRSRPPRLPRPRPRPEENPRP	0.64
RRIRERPPRLPRPRPRPMQLPRP	0.0995
RRIRKRPPRLPRPRPRPHHIPRP	-0.165

Sequence	shrunken log2 fold change
RRIRIRPPRLPRPRPRPDRPPRP	-0.0549
RRIRTRPPRLPRPRPRPHPQPRP	-0.116
RRIRLRPPRLPRPRPRPYFQPRP	-0.269
RRIRCRPPRLPRPRPRPPRGPRP	0.67
RRIRSRPPRLPRPRPRPKWFPRP	-0.0561
RRIRRRPPRLPRPRPRPHDWPRP	0.312
RRIRLRPPRLPRPRPRPLVSPRP	0.0156
RRIRVRPPRLPRPRPRPLTKPRP	0.044
RRIRKRPPRLPRPRPRPVGPPRP	0.441
RRIRRRPPRLPRPRPRPWVYPRP	0.0234
RRIRNRPPRLPRPRPRPKFDPRP	-0.235
RRIRVRPPRLPRPRPRPFMVPRP	-0.43
RRIRPRPPRLPRPRPRPWAMPRP	-0.223
RRIRLRPPRLPRPRPRPEGSPRP	-0.0436
RRIRMRPPRLPRPRPRPHAEPRP	2.8
RRIRARPPRLPRPRPRPSVYPRP	-0.138
RRIRWRPPRLPRPRPRPGEDPRP	0.381
RRIRRRPPRLPRPRPRPTHSPRP	0.775
RRIRLRPPRLPRPRPRPRRDPRP	0.2
RRIRWRPPRLPRPRPRPSDEPRP	-0.117
RRIRMRPPRLPRPRPRPRWAPRP	1.3
